Laboratory results as given in patent US20210047372A1 (Affibody, published 2021).

Tests used:
insulin = molecular target: T1, insulin (UniProt P01308 25-54; P01308 90-110, limits assumed); assay: SPR, Biacore T200; target immobilized on CM5, His6-tagged Y variant injected; 1:1 Langmuir
T1 construct: Mature insulin has two chains (A and B) from one precursor; also called b-insulin
Experimental: (§1) Kinetic constants (kₐ and kd) and affinities (KD) were determined for Hiss-tagged Y variants using a Biacore T200 instrument (GE Healthcare). Target proteins C4, IL-6 and insulin, respectively, were immobilized in separate flow cells on the carboxylated dextran layer of different CM5 chip surfaces (GE Healthcare).
(§2) Immobilization was performed using amine coupling chemistry according to the manufacturer's protocol and PBS pH 7.4 supplemented with 0.1 Tween20 (PBST 0.1%) as running buffer. The ligand immobilization levels on the surfaces were 3280-8830 RU for C4, 495-1184 RU for IL-6, and 270-282 RU for insulin. One flow cell surface on each chip was activated and deactivated for use as blank during analyte injections. In the kinetic experiment, PBST 0.1% was used as running buffer at a flow rate of 30 μl/min. The analytes, i.e. Y variants, were each diluted in PBST 0.1 buffer at concentrations of 1000, 500, 100, 50 and 10 nM and injected for 5 min, followed by dissociation in running buffer for 3 min. After dissociation, the surfaces were regenerated with one injection of 30 μl 10 mM HCl. Kinetic constants were calculated from the sensorgrams using the Langmuir 1:1 model of Biacore T200 Evaluation software 2.0 (GE Healthcare).

interleukin 6 (IL-6) = molecular target: T2, interleukin 6 (IL-6) (UniProt P05231 30-212); assay: as above
T2 construct: also called b-IL-6
Experimental: as §1, §2

T1 sequence (P01308 25-54 limits assumed, form in doubt, chain 1 of 2): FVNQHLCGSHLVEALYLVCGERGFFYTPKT
T1 sequence (P01308 90-110 limits assumed, form in doubt, chain 2 of 2): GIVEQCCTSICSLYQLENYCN

B1: Y00296C (designed binder)
chain: MGSSHHHHHHTIDEWLLAEAKEAAIAELDSKGVGAYQIKFIQLAKSVEHVQLLKQAILADLP
notes: if it is only 46 residues long, TIDEWL must be put before it
B1 showed a Kd (insulin) of 51 nM.

B2: Y00035 (designed binder)
chain: MGSSHHHHHHGSSLAEAKEAANAELDSYGVQANSIEAIEQGLFVEVVELLKELILAALPASGSVD
notes: From library Ylib001Naive.I
Work on B2 yielded a Kd (interleukin 6 (IL-6)) of 360 nM.

B3: Y00032 (designed binder)
chain: MGSSHHHHHHGSSLAEAKEAAIAELDSKGVGAYQKSFIELAKSVEHVELLKEAILADLPASGSVD
With B3 the Kd (insulin) was 50 nM.

B4: Y00125 (designed binder)
chain: MGSSHHHHHHGSSLAEAKEAANAELDSKGVGAYQKSFIELAKSVEHVELLKEAILADLPASGSVD
notes: Differs from Y00032 only in position 9 (N instead of I)
For B4, the Kd (insulin) was 110 nM.

B5: Y00296a (designed binder)
chain: MGSSHHHHHHGSSLAEAKEAAIAELDSKGVGAYQIKFIQLAKSVEHVQLLKQAILADLPASYGS
notes: if it is only 46 residues long, ASYGS must be added at the C-terminus
B5 showed a Kd (insulin) of 22 nM.

B6: Y00263 (designed binder)
chain: MGSSHHHHHHGSSLAEAKEAAIAELKSKGVGAYQKSFIELAKSVEHVELLKEAILADLP
notes: Y00032 with D13K
B6 gave a Kd (insulin) of 130 nM.

B7: Y00271 (designed binder)
chain: MGSSHHHHHHGSSLAEAKEAAIAELDSKGVGAYQKSFIQLAKSVEHVELLKEAILADLP
notes: Y00032 with E26Q
B7 was tested, and the Kd (insulin) was 47 nM.

B8: Y00276 (designed binder)
chain: MGSSHHHHHHGSSLAEAKEAAIAELDSKGVGAYQKSFIELAKSVEHVELLKEAILKDLP
notes: Y00032 with A43K
B8 showed a Kd (insulin) of 76 nM.

B9: Y00265 (designed binder)
chain: MGSSHHHHHHGSSLAEAKEAAIAELDSKGIGAYQKSFIELAKSVEHVELLKEAILADLP
notes: Y00032 with V17I
B9 gave a Kd (insulin) of 120 nM.

B10: Y00264 (designed binder)
chain: MGSSHHHHHHGSSLAEAKEAAIAELDSYGVGAYQKSFIELAKSVEHVELLKEAILADLP
notes: Y00032 with K15Y
For B10, the Kd (insulin) was 64 nM.

B11: Y00267 (designed binder)
chain: MGSSHHHHHHGSSLAEAKEAAIAELDSKGVGEYQKSFIELAKSVEHVELLKEAILADLP
notes: Y00032 with A19E
In the case of B11, the Kd (insulin) is reported as 59 nM.

B12: Y00296 (designed binder)
chain: MGSSHHHHHHGSSLAEAKEAAIAELDSKGVGAYQIKFIQLAKSVEHVQLLKQAILADLP
notes: Y00293 with E26Q
In the case of B12, the Kd (insulin) is reported as 37 nM.

B13: Y00272 (designed binder)
chain: MGSSHHHHHHGSSLAEAKEAAIAELDSKGVGAYQKSFIELGKSVEHVELLKEAILADLP
notes: Y00032 with A28G
For B13, the Kd (insulin) was 110 nM.

B14: Y00273 (designed binder)
chain: MGSSHHHHHHGSSLAEAKEAAIAELDSKGVGAYQKSFIELAKSVQHVELLKEAILADLP
notes: Y00032 with E32Q
With B14 the Kd (insulin) was 77 nM.

B15: Y00269 (designed binder)
chain: MGSSHHHHHHGSSLAEAKEAAIAELDSKGVGAYQKKFIELAKSVEHVELLKEAILADLP
notes: Y00032 with S23K
In the case of B15, the Kd (insulin) is reported as 390 nM.

B16: Y00274 (designed binder)
chain: MGSSHHHHHHGSSLAEAKEAAIAELDSKGVGAYQKSFIELAKSVEHVQLLKEAILADLP
notes: Y00032 with E35Q
B16 was tested, and the Kd (insulin) was 56 nM.

B17: Y00275 (designed binder)
chain: MGSSHHHHHHGSSLAEAKEAAIAELDSKGVGAYQKSFIELAKSVEHVELLKQAILADLP
notes: Y00032 with E39Q
B17 gave a Kd (insulin) of 59 nM.

B18: Y00266 (designed binder)
chain: MGSSHHHHHHGSSLAEAKEAAIAELDSKGVSAYQKSFIELAKSVEHVELLKEAILADLP
notes: Y00032 with G18S
B18 showed a Kd (insulin) of 56 nM.

B19: Y00268 (designed binder)
chain: MGSSHHHHHHGSSLAEAKEAAIAELDSKGVGAYQISFIELAKSVEHVELLKEAILADLP
notes: Y00032 with K22I
Binder B19 has a Kd (insulin) of 84 nM.

B20: Y00330 (designed binder)
chain: MGSSHHHHHHGSSLAEAKEAAIAELDSKGVGAKYIKMIQMAKHVETVQYMKQAILASLPA
notes: From library Ylib002Naive.I
For B20, the Kd (insulin) was 120 nM, the koff (insulin) was 0.0037 s⁻¹ and the kon (insulin) was 30000 M⁻¹ s⁻¹.

B21: Y00356a (designed binder)
chain: MGSSHHHHHHGSSLAEAKEAAIAELDSKGVGAKYIKMIQHAHYVEVVQWLKQAILAHLPA
notes: From library Ylib002Naive.I; if it is only 46 residues long, an A must be added at the C-terminus
B21 gave a Kd (insulin) of 0.17 nM, a koff (insulin) of 0.0061 s⁻¹ and a kon (insulin) of 3.4e+07 M⁻¹ s⁻¹.

B22: Y00361 (designed binder)
chain: MGSSHHHHHHGSSLAEAKEAAIAELDSKGVGAKFIKMIQSAKLVETVQLLKQAILADLPA
notes: From library Ylib002Naive.I
With B22 the Kd (insulin) was 310 nM, the koff (insulin) was 0.0036 s⁻¹ and the kon (insulin) was 12000 M⁻¹ s⁻¹.

B23: Y00299 (designed binder)
chain: MGSSHHHHHHGSSLAEAKEAAIAELDSKGVGAYQIKFIQVAKTVEQVQILKQAILADLPA
notes: From library Ylib002Naive.I
B23 gave a Kd (insulin) of 6.5 nM, a koff (insulin) of 0.002 s⁻¹ and a kon (insulin) of 310000 M⁻¹ s⁻¹.

B24: Y02716 (designed binder)
chain: MGSSHHHHHHGSSLAEAKEAAIAELDSYGVGARQIKWIEQAKSVEVVQWLKQAILADLPA
notes: Y00301 with K15Y + Q26E
For B24, the Kd (insulin) was 7.6 nM, the koff (insulin) was 0.21 s⁻¹ and the kon (insulin) was 2.7e+07 M⁻¹ s⁻¹.

B25: Y02714 (designed binder)
chain: MGSSHHHHHHGSSLAEAKEAAIAELDSKGVGAYQIKFIEIAHTVEEVQLMKQAILADLPA
notes: Y00310 with Q26E
B25 showed a Kd (insulin) of 540 nM, a koff (insulin) of 0.16 s⁻¹ and a kon (insulin) of 290000 M⁻¹ s⁻¹.

B26: Y00310 (designed binder)
chain: MGSSHHHHHHGSSLAEAKEAAIAELDSKGVGAYQIKFIQIAHTVEEVQLMKQAILADLPA
notes: From library Ylib002Naive.I
B26 showed a Kd (insulin) of 37 nM, a koff (insulin) of 0.0063 s⁻¹ and a kon (insulin) of 170000 M⁻¹ s⁻¹.

B27: Y00345 (designed binder)
chain: MGSSHHHHHHGSSLAEAKEAAIAELDSKGVGAYQIKFIQVAKTVEAVQAIKQAILADLPA
notes: From library Ylib002Naive.I
For B27, the Kd (insulin) was 61 nM, the koff (insulin) was 0.017 s⁻¹ and the kon (insulin) was 290000 M⁻¹ s⁻¹.

B28: Y00358 (designed binder)
chain: MGSSHHHHHHGSSLAEAKEAAIAELDSKGVGAAKIKWIQDAKSVETVQFLKQAILAELPA
notes: From library Ylib002Naive.I
With B28 the Kd (insulin) was 10 nM, the koff (insulin) was 0.0023 s⁻¹ and the kon (insulin) was 220000 M⁻¹ s⁻¹.

B29: Y02709 (designed binder)
chain: MGSSHHHHHHGSSLAEAKEAALAELDSKGVGAAKIKWIQDAKSVETVQFLKQAILAELPA
notes: Y00358 with I9L
Work on B29 yielded a Kd (insulin) of 380 nM, a koff (insulin) of 0.01 s⁻¹ and a kon (insulin) of 27000 M⁻¹ s⁻¹.

B30: Y02713 (designed binder)
chain: MGSSHHHHHHGSSLAEAKEAAIAELDSYGVGAYQIKFIQIAHTVEEVQLMKQAILADLPA
notes: Y00310 with K15Y
B30 gave a Kd (insulin) of 190 nM, a koff (insulin) of 0.014 s⁻¹ and a kon (insulin) of 110000 M⁻¹ s⁻¹.

B31: Y02717 (designed binder)
chain: MGSSHHHHHHGSSLAEAKEAAIAELDSYGVGAYQIKFIEIAHTVEEVQLMKQAILADLPA
notes: Y00310 with K15Y + Q26E
B31 gave a Kd (insulin) of 610 nM, a koff (insulin) of 0.02 s⁻¹ and a kon (insulin) of 33000 M⁻¹ s⁻¹.

B32: Y02715 (designed binder)
chain: MGSSHHHHHHGSSLAEAKEAAIAELDSYGVGAAKIKWIEDAKSVETVQFLKQAILAELPA
notes: Y00358 with K15Y + Q26E
B32 gave a Kd (insulin) of 280 nM, a koff (insulin) of 0.0019 s⁻¹ and a kon (insulin) of 6700 M⁻¹ s⁻¹.

B33: Y00304 (designed binder)
chain: MGSSHHHHHHGSSLAEAKEAAIAELDSKGVGAYQIKFIQVAHDVEEVQILKQAILADLPA
notes: From library Ylib002Naive.I
Work on B33 yielded a Kd (insulin) of 21 nM, a koff (insulin) of 0.0011 s⁻¹ and a kon (insulin) of 85000 M⁻¹ s⁻¹.

B34: Y02710 (designed binder)
chain: MGSSHHHHHHGSSLAEAKEAAIAELDSYGVGAAKIKWIQDAKSVETVQFLKQAILAELPA
notes: Y00358 with K15Y
Work on B34 yielded a Kd (insulin) of 14 nM, a koff (insulin) of 0.0027 s⁻¹ and a kon (insulin) of 190000 M⁻¹ s⁻¹.

B35: Y02711 (designed binder)
chain: MGSSHHHHHHGSSLAEAKEAAIAELDSKGVGAAKIKWIEDAKSVETVQFLKQAILAELPA
notes: Y00358 with Q26E
In the case of B35, the Kd (insulin) is reported as 54 nM, the koff (insulin) is reported as 0.008 s⁻¹ and the kon (insulin) is reported as 150000 M⁻¹ s⁻¹.

B36: Y00296b (designed binder)
chain: MGSSHHHHHHGSSLAEAKEAAIAELDSKGVGAYQIKFIQLAKSVEHVQLLKQAILADLPGYS
notes: if it is only 46 residues long, GYS must be added
With B36 the Kd (insulin) was 31 nM.

B37: Y02444 (designed binder)
chain: MGSSHHHHHHGSSLAEAKEAAIAELDSKGVGAVEIKQIQEALLVEIVQLLKQAILAVLPA
notes: From library Ylib002Naive.I; also called Y002444
B37 gave a Kd (interleukin 6 (IL-6)) of 61 nM, a koff (interleukin 6 (IL-6)) of 0.0055 s⁻¹ and a kon (interleukin 6 (IL-6)) of 90000 M⁻¹ s⁻¹.

B38: Y02415 (designed binder)
chain: MGSSHHHHHHGSSLAEAKEAAIAELDSKGVGAGDIKDIQDALLVEIVQLLKQAILAVLPA
notes: From library Ylib002Naive.I
Binder B38 has a Kd (interleukin 6 (IL-6)) of 160 nM, a koff (interleukin 6 (IL-6)) of 0.0015 s⁻¹ and a kon (interleukin 6 (IL-6)) of 9700 M⁻¹ s⁻¹.

B39: Y02447 (designed binder)
chain: MGSSHHHHHHGSSLAEAKEAAIAELDSKGVGAHGIKEIQDAILVEIVQLLKQAILAALPA
notes: From library Ylib002Naive.I
B39 gave a Kd (interleukin 6 (IL-6)) of 160 nM, a koff (interleukin 6 (IL-6)) of 0.0017 s⁻¹ and a kon (interleukin 6 (IL-6)) of 11000 M⁻¹ s⁻¹.

B40: Y02374 (designed binder)
chain: MGSSHHHHHHGSSLAEAKEAAIAELDSKGVGAAEIKRIQAAELVEIVQLLKQAILAVLPA
notes: From library Ylib002Naive.I
B40 showed a Kd (interleukin 6 (IL-6)) of 120 nM, a koff (interleukin 6 (IL-6)) of 0.0017 s⁻¹ and a kon (interleukin 6 (IL-6)) of 14000 M⁻¹ s⁻¹.
